Experimental data: PMC8773746
pKd: −log10 of the molar value. One block for each substance: values may come before it.

Key:
[1] = molecular target: S100P (monomeric) (Homo sapiens) (UniProt P25815); conditions: cited from earlier work
[2] = molecular target: Human erythropoietin (Epoetin β) (human) (UniProt P01588); assay: SPR; EPO immobilised by amine coupling on a ProteOn GLH chip (up to 3 000 RU); S100 or CaM as analyte (0.25–4 μM); 25 °C; 10 mM HEPES, 150 mM NaCl, 0.05% TWEEN 20, pH 7.4, 1 mM CaCl2; heterogeneous ligand model, values averaged over analyte concentrations (n = 5)
S100P (Homo sapiens) = S100P (Homo sapiens) (UniProt P25815); conditions: cited from earlier work
S100P (Homo sapiens), sequence (P25815 whole entry): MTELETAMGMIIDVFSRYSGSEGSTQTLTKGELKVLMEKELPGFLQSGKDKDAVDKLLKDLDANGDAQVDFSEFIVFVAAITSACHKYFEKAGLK

Human S100A2 protein, sequence (P29034 4-98): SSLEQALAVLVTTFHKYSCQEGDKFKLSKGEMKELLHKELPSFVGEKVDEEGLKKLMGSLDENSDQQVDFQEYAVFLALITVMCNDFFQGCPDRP
interleukin 11, sequence (P20809 22-199): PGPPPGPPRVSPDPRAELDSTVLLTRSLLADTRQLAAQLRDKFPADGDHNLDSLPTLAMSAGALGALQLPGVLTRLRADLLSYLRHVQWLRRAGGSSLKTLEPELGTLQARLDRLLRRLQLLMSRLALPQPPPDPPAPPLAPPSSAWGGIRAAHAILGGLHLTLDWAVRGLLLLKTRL
S100P (monomeric) (Homo sapiens), sequence (P25815 whole entry): as the sequence (P25815 whole entry) above
S100P, sequence (P25815 whole entry): as above

Substance: interleukin 11 (from UniProt P20809)
pKd [1]: 9.00

Kd1 (heterogeneous ligand model, ligand population L1) [2]: 81 nM | Kd2 (heterogeneous ligand model, ligand population L2) [2]: 1.2 µM | ka1 (heterogeneous ligand model, ligand population L1) [2]: 2200 M⁻¹ s⁻¹ | ka2 (heterogeneous ligand model, ligand population L2) [2]: 10000 M⁻¹ s⁻¹ | kd1 (heterogeneous ligand model, ligand population L1) [2]: 0.00018 s⁻¹ | kd2 (heterogeneous ligand model, ligand population L2) [2]: 0.012 s⁻¹
Substance: Human S100A2 protein (from UniProt P29034 4-98) (natural protein)

Substance: S100P (from UniProt P25815)
pKd (S100P (Homo sapiens)): 7.19
